Assay results published in US20210230599, “STEM-LOOP COMPOSITIONS AND METHODS FOR INHIBITING INTERLEUKIN-8” (VITRISA THERAPEUTICS, INC., published 2021).

Tests used:
[1] = target: T1, Interleukin-8 (IL8, CXCL8), C-terminal His-tagged (Homo sapiens, UniProt P10145 SEQ:1-72); experiment: inhibition; inhibition of IL8 binding to CXCR1 cells, 5 nM IL8, protein limited; neutrophil migration 3 nM (Table 35); conditions: tags: C-terminal His (Sino Biological); stem-loop
Procedure: (§1) CXCR1 overexpressing cells were used to confirm that aptamers could block IL8 binding to its cognate receptor, CXCR1, in a functional setting. Briefly, CXCR1-overexpressing cells were plated in a 96 well plate and seeded overnight. Serially diluted aptamers and 5 nM IL8 were mixed in cell culture media and applied to cells for 2 hours at 37° C. Media was aspirated, and cells were washed 3× with PBS for 5 minutes. Cells were lysed in Ultra HiBlock Buffer (Perkin Elmer) with gentle agitation. IL8 levels were determined using Ultra TR-FRET (Perkin Elmer).

[2] = target: T1, Interleukin-8 (IL8, CXCL8), C-terminal …; experiment: competition; competition TR-FRET; S1 disrupted; conditions: tags: C-terminal 6xHis (Sino Biological)
Procedure: (§2) Activity of each of these variants were tested using a time resolved competition TR-FRET assay in which the labeled parent Aptamer 3 was competed with increasing concentrations of unlabeled variants for binding to IL8 (FIG. 14). Briefly, 2-fold dilutions of thermally equilibrated aptamers were made in TR-FRET Buffer (50 mM MOPS, pH 7.4, 125 mM NaCl, 5 mM KCl, 50 μM CHAPS, 0.1 mg/mL BSA, 1 mM CaCl₂, and 1 mM MgCl₂). 5 μL of aptamer or control solution was added to 5 μl mix of 10 nM C-terminal His-tagged-IL8, 60 nM ALEXA FLUOR® 647-labeled Aptamer, and 5 nM anti-His-Eu (Perkin Elmer) in a black wall low volume 384 well plate (Greiner). For control, 5 μl of 1000-fold excess of unlabeled parent aptamer or 5 μl TR-FRET buffer alone was added to the mix of ALEXA FLUOR® 647-labeled aptamer, His-IL8, and anti-His-Eu. The plate was covered with a plate seal and subsequently incubated in the dark for 1 hour at room temperature. The plate was read on a Biotek CYTATION™ 5 plate reader. […]
(§3) To better understand the sequence requirements and confirm the stem structures of members of the Aptamer 8 family as determined from sequence covariation analysis from both the primary and secondary (degenerate) selections, a series of variants which included mutations and deletions to the predicted stems (Tables 45 and 46) were synthesized and screened. […]

[3] = target: T1, Interleukin-8 (IL8, CXCL8), C-terminal …; experiment: inhibition; inhibition of IL8 binding to CXCR1 cells, protein limited; neutrophil migration 2 nM; conditions: tags: C-terminal His (Sino Biological); stem-loop
Procedure: as §1

[4] = target: T1, Interleukin-8 (IL8, CXCL8), C-terminal …; experiment: competition; competition TR-FRET; U13A; conditions: tags: C-terminal 6xHis (Sino Biological)
Procedure: as §2, §3

[5] = target: T1, Interleukin-8 (IL8, CXCL8), C-terminal …; experiment: competition; competition TR-FRET; affinity within error of unpegylated parent; parent given as Aptamer 38 and as Aptamer 3; conditions: tags: C-terminal His (Sino Biological); stem-loop
Procedure: as §2, with “To better understand the sequence requirements and to confirm the stem structures of members of the Aptamer 3 family as determined from sequence covariation analysis from both the primary and secondary (degenerate) selections, a series of variants which included mutations and deletions to the predicted stems were synthesized and screened (Table 24). Activity” for “Activity”

UGAUGACGGUAGAUUACGGGUAGAGUGACCGCAUCU (ssRNA, 2'-F G; 2'-OMe A,C,U; 5' C6NH2; 3' idT) [Aptamer 3]
IC50 [1]: 3 nM

CAAUGGGAAAUGUGAGAUGGGUUGCCG (ssRNA, 2'-F G, 2'-OMe A/C/U, 5' C6NH2, 3' idT) [Aptamer 214]
binding signal [2]: > 10 fold worse than Aptamer 8

GGCGACGGUAGAUUAUGGGCAGUGUGACCGCGCC (ssRNA, 2'-F G; 2'-OMe A,C,U; 5' C6NH2; 3' idT) [Aptamer 147]
IC50 [3]: 3 nM

CGGUGGGAAAAGUGAGAUGGGUUGCCG (ssRNA, 2'-F G, 2'-OMe A/C/U, 5' C6NH2, 3' idT) [Aptamer 61]
binding result [4]: binds

GAUGACGGUAGAUUACGGGUAGAGUGACCGCAUC (ssRNA, 2'-F G; 2'-OMe A,C,U; 5' 40 kDa PEG via C6NH2; 3' idT) [Aptamer P01]
binding result [5]: binds
